Laboratory results: patent US20220175977A1 (SORICIMED BIOPHARMA, published 2022)
Where no end group is shown, it is not given here.

T1: TRPV6 (endogenous, in human cancer cell lines, tumour tissue and plasma) (human, UniProt Q9H1D0 1-765)
T1 construct: whole, on cells; also called Transient Receptor Potential Vanilloid 6; TRPV6 channel
T1 sequence (looked up): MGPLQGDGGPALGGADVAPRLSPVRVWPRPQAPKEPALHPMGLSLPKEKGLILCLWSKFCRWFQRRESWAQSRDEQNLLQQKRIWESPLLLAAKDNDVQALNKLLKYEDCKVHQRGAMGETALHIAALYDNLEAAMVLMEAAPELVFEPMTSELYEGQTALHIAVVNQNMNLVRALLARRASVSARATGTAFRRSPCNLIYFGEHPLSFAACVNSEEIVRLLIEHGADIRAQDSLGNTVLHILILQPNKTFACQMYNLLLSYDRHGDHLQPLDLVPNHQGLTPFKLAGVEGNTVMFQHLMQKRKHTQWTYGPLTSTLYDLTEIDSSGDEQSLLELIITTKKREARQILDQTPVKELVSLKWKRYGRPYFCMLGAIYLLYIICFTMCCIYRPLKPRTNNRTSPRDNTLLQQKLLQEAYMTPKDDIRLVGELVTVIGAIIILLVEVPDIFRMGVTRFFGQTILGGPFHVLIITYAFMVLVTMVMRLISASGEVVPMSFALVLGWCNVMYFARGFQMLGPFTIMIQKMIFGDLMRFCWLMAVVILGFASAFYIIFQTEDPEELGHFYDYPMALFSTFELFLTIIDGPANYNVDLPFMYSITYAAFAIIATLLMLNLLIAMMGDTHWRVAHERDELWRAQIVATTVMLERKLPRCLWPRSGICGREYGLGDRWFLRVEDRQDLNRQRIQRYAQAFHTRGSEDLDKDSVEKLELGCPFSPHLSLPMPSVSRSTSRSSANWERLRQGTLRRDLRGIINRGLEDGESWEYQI


Legend:
[1] = molecular target: T1, TRPV6 (endogenous, in human cancer cell …); assay: LNCaP model; method not described
[2] = molecular target: T1, TRPV6 (endogenous, in human cancer cell …); assay: fluorescence microscopy, SKOV-3 cells, not transfected (FIG. 9 A1-A3)

Binder | Kd [1] [nM] | binding result [2]
EGKLSSNDTEGGLCKEFLHPSKVDLPR [SorC27] | 140 | 
EGKLSSNDTEGGLC(Cy5.5)KEFLHPSKVDLPR (also called SorC27-Cy5.5 compound; fluorescently labeled SorC27) [SorC27-cy5.5] |  | binds
KEFLHPSKVDLPR [SorC13] | 100 | 
